The nature of this data set: self-splicing fitness, log relative to wild type (ln ratio); higher = more splicing; Tetrahymena group I intron in knt gene, E. coli kanamycin selection, DiMSum; sequences stand for … in CUCUCU…GGAGGGAAAAGUUAUCAGGCAUGCACCUGGUAGCUAGUCUUUAAACCAAUAGAUUGCAUCGGUUUAAAAGGCAAGACCGUCAAAUUGCGGGAAAGGGGUCAACAGCCGUUCAGUACCAAGUCUCAGGGGAAACUUUGAGAUGGCCUUGCAAAGGGUAUGGUAAUAAGCUGACGGACAUGGUCCUAACCACGCAGCCAAGUCCUAAGUCAACAGAUCUUCUGUUGAUAUGGAUGCAGUUCACAGACUAAAUGUCGGUCGGGGAAGAUGUAUUCUUCUCAUAAGAUAUAGUCGGACCUCUCCUUAAUGGGAGCUAGCGGAUGAAGUGAUGCAACACUGGAGCCGCUGGGAACUAAUUUGUAUGCGAAAGUAUAUUGAUUAGUUUUGGAGUACUCGUGGUCG
Summed up: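 A randomised library covering all eight P1ex-region intron nucleotides was built with the intron in the knt kanamycin-resistance gene on pET-22b(+) and held in E. coli BL21(DE3). Cells were grown overnight at 37°C or 30°C on LB agar, with or without 25 μg/mL kanamycin, plus 100 μg/mL carbenicillin, 50 μM IPTG and 0.2% rhamnose, and pooled colonies were amplicon-sequenced on an Illumina HiSeq 2500. DiMSum fitness is the error-weighted combination of wild-type-normalised replicate fold changes, kanamycin versus none.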

± gives the uncertainty stated by the source.

In the case of UGAAAGCAAUAUUACGGACA, the “self-splicing fitness (ln)” value (30 °C) is -0.0695 ± 0.088 and the “self-splicing fitness (ln)” value (37 °C) was -0.28 ± 0.096. Consider CUCGAGCAAUAUUACGACGU, for which the “self-splicing fitness (ln)” value by setting is: (30 °C) -3.11 ± 0.14; (37 °C) -1.59 ± 0.14. In the same order, the values of AUUCAGCAAUAUUACGCUAU are -1.45 ± 0.079 and -0.637 ± 0.1. In the case of CUUAAGCAAUAUUACGGUCC, the “self-splicing fitness (ln)” value (30 °C) was -1.36 ± 0.29. In the case of GCGAAGCAAUAUUACGGUAU, the “self-splicing fitness (ln)” value runs as follows: (30 °C) -3.35 ± 0.18; (37 °C) -0.774 ± 0.1. For AGAGAGCAAUAUUACGAACU, in that order: -1.81 ± 0.2 and -1.57 ± 0.2. For CGAUAGCAAUAUUACGCGAG, in that order: -3.16 ± 0.26 and -2.42 ± 0.2. In the case of ACAUAGCAAUAUUACGAUUC, the “self-splicing fitness (ln)” value (30 °C) is -2.52 ± 0.15 and the “self-splicing fitness (ln)” value (37 °C) was -1.52 ± 0.12.

Turning to GCAUAGCAAUAUUACGGUUG, the “self-splicing fitness (ln)” value is, setting by setting: (30 °C) -2.82 ± 0.099; (37 °C) -1.39 ± 0.11. For GGAAAGCAAUAUUACGACAA, in that order: -1.71 ± 0.12 and -1 ± 0.14. In the case of GAUAAGCAAUAUUACGUUUA, the “self-splicing fitness (ln)” value by setting is: (30 °C) -1.59 ± 0.12; (37 °C) -0.982 ± 0.12. In the same order, the values of UGAUAGCAAUAUUACGGGUA are -1.74 ± 0.12 and -1.81 ± 0.14.

Take CGUGAGCAAUAUUACGGUAU: the “self-splicing fitness (ln)” value runs as follows: (30 °C) -3.54 ± 0.25; (37 °C) -3.1 ± 0.34.

Regarding UUUAAGCAAUAUUACGGACU, the “self-splicing fitness (ln)” value was -1.59 ± 0.14 (30 °C) and -0.921 ± 0.13 (37 °C). For GACUAGCAAUAUUACGCGGG, the “self-splicing fitness (ln)” value reads like this: (30 °C) -2.7 ± 0.22; (37 °C) -1.75 ± 0.18. In the same order, the values of CUAUAGCAAUAUUACGCGUU are -4.27 ± 0.42 and -2.18 ± 0.3. In the same order, the values of AUAGAGCAAUAUUACGAAUU are -0.889 ± 0.15 and -0.429 ± 0.23. For AUAGAGCAAUAUUACGCAGA, in that order: -2.57 ± 0.21 and -1.84 ± 0.16.

For the sequence CGUAAGCAAUAUUACGCUCC, the “self-splicing fitness (ln)” value by setting is: (30 °C) -2.95 ± 0.41; (37 °C) -1.74 ± 0.48. For GCUGAGCAAUAUUACGAAUA, in that order: -2.55 ± 0.29 and -1.53 ± 0.39. In the same order, the values of GCCCAGCAAUAUUACGUCUU are -0.849 ± 0.061 and -0.668 ± 0.09. For ACCUAGCAAUAUUACGUUUA, in that order: -3.18 ± 0.17 and -2.68 ± 0.17. Turning to AUCAAGCAAUAUUACGCAAA, the “self-splicing fitness (ln)” value is, setting by setting: (30 °C) -2.96 ± 0.2; (37 °C) -1.67 ± 0.15. Consider AAUCAGCAAUAUUACGUACG, for which the “self-splicing fitness (ln)” value (30 °C) was -0.91 ± 0.056 and the “self-splicing fitness (ln)” value (37 °C) was -0.149 ± 0.075. For UCGUAGCAAUAUUACGAUCU, in that order: -1.92 ± 0.3 and -1.67 ± 0.37. For UCCGAGCAAUAUUACGGGAA, in that order: -3.05 ± 0.3 and -1.65 ± 0.19. On to UCAGAGCAAUAUUACGCCCU, for which the “self-splicing fitness (ln)” value (37 °C) is -2.21 ± 0.39. In the case of AUGCAGCAAUAUUACGUCUC, the “self-splicing fitness (ln)” value is -1.93 ± 0.071 (30 °C) and -1.05 ± 0.092 (37 °C).

For CCGGAGCAAUAUUACGCUAU, where the note is “37 °C”, the “self-splicing fitness (ln)” value was -2.1 ± 0.2.

As for AAGGAGCAAUAUUACGGUUA, the “self-splicing fitness (ln)” value (30 °C) is -2.54 ± 0.34. For the sequence GUUAAGCAAUAUUACGCCGC, the “self-splicing fitness (ln)” value (30 °C) was -3.02 ± 0.21 and the “self-splicing fitness (ln)” value (37 °C) is -2.03 ± 0.31. Turning to ACCUAGCAAUAUUACGCGCU, the “self-splicing fitness (ln)” value was 0.00461 ± 0.076 (30 °C) and -0.0669 ± 0.096 (37 °C). In the same order, the values of ACGUAGCAAUAUUACGCAAG are -3.16 ± 0.24 and -3.03 ± 0.22. For AGCAAGCAAUAUUACGAGUU, in that order: -2.98 ± 0.16 and -1.55 ± 0.16. In the same order, the values of CCCUAGCAAUAUUACGAUUU are -3.35 ± 0.17 and -1.91 ± 0.17. Consider ACCAAGCAAUAUUACGAGAA, for which the “self-splicing fitness (ln)” value runs as follows: (30 °C) -2.87 ± 0.34; (37 °C) -2.32 ± 0.3. In the same order, the values of ACCUAGCAAUAUUACGAACA are -2.24 ± 0.29 and 0.383 ± 0.2. Regarding UAAUAGCAAUAUUACGUAUU, the “self-splicing fitness (ln)” value by setting is: (30 °C) -4.09 ± 0.28; (37 °C) -1.95 ± 0.16. In the same order, the values of AUGUAGCAAUAUUACGCGUG are -1.44 ± 0.12 and -0.836 ± 0.12.

The values are drawn from the supplement of paper PMC7877785.
